This sample holds only a part of the variants without activity.
B1: TPR 5TU (parent)
chain: GGAUCUUCUCGAUCUAACAAAAAAGACAAAUCUGCCACAAAGCUUGAGAGCAUCUUCGGAUGCAGAGGCGGCAGCCUUCGGUGGCGCGAUAGCGCCAACGUUCUCAACUAUGACACGCAAAACGCGUGCUCCGUUGAAUGGAGUUUAUCAUG

Variants of: B1
Assay: polymerase ribozyme fitness, log enrichment relative to wild type (log ratio); higher = more active; in vitro selection for triplet polymerase activity
Method in brief: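 Fitness measures genotype enrichment against wild-type enrichment on a logarithmic scale, with inverse-variance-weighted averaging of replicates. The logarithm is base 2, and genotypes were kept only with ≥10 input reads and ≥1 read per output in Illumina sequencing. The sequenced libraries came from one triplicate in vitro selection round, including frozen incubation at −7 °C, of PCR-built, transcribed mutant libraries of each subunit of a heterodimeric triplet polymerase ribozyme.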

Variant	polymerase ribozyme fitness (log ratio)
U53A U56C G141U	-0.733
U53G A113C G133A	≤ -4.2
A52G C96U	-1.46
U53A G86A	-2.07
A52U C96A	-2.92
C54A	-1.06
A52U A89G	-3.14
A52U C54U G92A A98G A120G U139C U144C U151A	≤ -4.2
U53A U101G C125A	-0.788
A52U C57A C95A A97U	-2.33
U53A G62A G86U	-2.24
A52U C57U G83C	-3.29
A52U A73C G83C G84A G92U C123G	≤ -4.2
U53C C57G C125U G143A	-3.67
U53A G59C C85U U135A	-0.238
U53A C93U G140C	≤ -4.2
U53A A120G	-1.88
U53A C54U U55A A60U U77G C85U G92A G112A A121U	≤ -4.2
U53A C96U C105G G112C U146C	≤ -4.2
A52G G71U C96U	-4.1
A52G G81A	-0.481

Variant	polymerase ribozyme fitness (log ratio)
U53A U55G G65C C85G C87U C103U C131A	≤ -4.2
A52U A66G C87G A97G	≤ -4.2
A52G G84A C116G	-2.02
A52U U56A A66U C93A C123G G143A U146A	≤ -4.2
A52G U53C G58A A142C	-3.35
A52G U135G U139C A147C	≤ -4.2
U53A G58C	-1.52
U53A G58A	-0.0533
A52U U78C U102C	-2.88
U53G G58C U82G A138C U151A	≤ -4.2
A52G C114A	-3.48
U53A A150C	-3.56
A52U G83A	-2.83
U53A A98U	-1.39
A52G G84A G136A	-0.512
U53A C132U U146G	-3.87
A52G G81A G83A A98U	-1.22
A52U G86U U104C	-3.56
A52U A73U A89C G92C C129G A137U	≤ -4.2
A52G G71U	-2.58
A52G G86A	-0.796

Variant	polymerase ribozyme fitness (log ratio)
U53A C85A G124U G143C U146C	≤ -4.2
U53A U55A G83U C123A G128U A147U	≤ -4.2
U53A U55A C79U A98U	≤ -4.2
A52G G83C C105A	-2.55
U53A C118G	-2.5
U53C G84A C95U	-0.536
A52U U55A	-1.7
U53A C93U U130G	≤ -4.2
U53A C95U	-0.368
U53A C85U	-1.4
U53A U135A	-1.55
U53A C96A C129G	-3.82
U53C G94C A98C U148G	≤ -4.2
A52G C125U	-0.198
U53G A60G C87A	≤ -4.2
U53A C75G C76U U82A C95U G128A	≤ -4.2
U53C U78G U127C U148C	≤ -4.2
A52U G59A A98G C131U	-1.78
U53A C96U C103U	-1.14
U53A A110C	≤ -4.2
A52U C57A U135C	-3.88

Variant	polymerase ribozyme fitness (log ratio)
U53G C57A C85U A115U A121C	-2.93
U53C G86U C96A U146A	-2.73
U53A G58A G80A G81A C87U	-2.31
U53A G62C C93A C118G G133A	≤ -4.2
U53A C75U C85U C123U C125A	-2.32
U53A U55A C57A C85G A122G	-2.51
U53A A60U U61A C69G C96U	-3.74
A52G G84A	-1.03
A52G G84U	-1.32
A52G G58C C99U	-0.284
U53A A66C A91U U104G G124A G141A	≤ -4.2
C54A A64G U111C G133U G140A G143A	≤ -4.2
A52U G58C U78A A122G	≤ -4.2
A52G U82A	-0.467
U53A U56A G58A C85U	0.824
U53A C79U A89G U134G	≤ -4.2
U53A C93A C99U G141U	≤ -4.2
A52G C96U U101A A142U A150G	≤ -4.2
A52U U61G A91G C96A G117C	-3.76
A52G U56G A60C C85G G143U	≤ -4.2

Reference: the RNAGym collection of RNA variant scans (doi:10.1073/pnas.2313332121)
